Test results reported in patent US20060134737A1 (VLAAMS INTERUNIVERSITAIR INSTITUUT VOOR BIOTECHNOLOGIE VZW, published 2006).

Molecular target: T1, cMyc-tagged Smurf2 (C716G), ligase inactive point mutant (UniProt Q9HAU4 1-748, limits assumed)
T1 construct: whole, on cells; Expressed from pCAGGS in HEK293T cells; co-immunoprecipitation from lysates; also called cMyc-Smurf2 (C716G); c-myc-Smurf2(C716G); not shown: cMyc tag
Test: co-immunoprecipitation of TNF-R2 with utr-1 from HEK293T lysates without cotransfected TRAF2, anti-cMyc Western blot

T1 sequence (Q9HAU4 whole entry C716G): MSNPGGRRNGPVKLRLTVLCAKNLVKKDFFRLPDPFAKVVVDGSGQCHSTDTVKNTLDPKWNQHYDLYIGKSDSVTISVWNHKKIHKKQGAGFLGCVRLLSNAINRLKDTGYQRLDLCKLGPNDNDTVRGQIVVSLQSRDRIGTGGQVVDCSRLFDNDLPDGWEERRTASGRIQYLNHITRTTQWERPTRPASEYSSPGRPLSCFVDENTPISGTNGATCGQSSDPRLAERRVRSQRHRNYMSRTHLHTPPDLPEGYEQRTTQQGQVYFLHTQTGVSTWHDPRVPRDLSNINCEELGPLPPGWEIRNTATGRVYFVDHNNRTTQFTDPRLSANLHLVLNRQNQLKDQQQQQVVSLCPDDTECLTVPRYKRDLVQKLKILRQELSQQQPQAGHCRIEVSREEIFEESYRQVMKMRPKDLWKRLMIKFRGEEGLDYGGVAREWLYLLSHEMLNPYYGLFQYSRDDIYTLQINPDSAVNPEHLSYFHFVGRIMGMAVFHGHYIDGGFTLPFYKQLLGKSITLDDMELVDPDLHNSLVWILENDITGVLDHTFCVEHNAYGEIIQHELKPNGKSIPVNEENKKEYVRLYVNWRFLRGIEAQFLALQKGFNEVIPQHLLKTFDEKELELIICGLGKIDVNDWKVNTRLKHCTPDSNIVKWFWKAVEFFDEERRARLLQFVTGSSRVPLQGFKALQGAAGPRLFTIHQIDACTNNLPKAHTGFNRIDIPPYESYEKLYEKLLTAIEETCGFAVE

B1: TNF receptor 2 (TNF-R2) wild type, pcDNAI-hTNF-R2 (receptor, UniProt P20333 23-461, looked up)
chain: LPAQVAFTPYAPEPGSTCRLREYYDQTAQMCCSKCSPGQHAKVFCTKTSDTVCDSCEDSTYTQLWNWVPECLSCGSRCSSDQVETQACTREQNRICTCRPGWYCALSKQEGCRLCAPLRKCRPGFGVARPGTETSDVVCKPCAPGTFSNTTSSTDICRPHQICNVVAIPGNASMDAVCTSTSPTRSMAPGAVHLPQPVSTRSQHTQPTPEPSTAPSTSFLLPMGPSPPAEGSTGDFALPVGLIVGVTALGLLIIGVVNCVIMTQVKKKPLCLQREAKVPHLPADKARGTQGPEQQHLLITAPSSSSSSLESSASALDRRAPTRNQPQAPGVEASGAGEARASTGSSDSSPGGHGTQVNVTCIVNVCSSSDHSSQCSSQASSTMGDTDSSPSESPKDEQVPFSKEECAFRSQLETPETLLGSTEEKPLPLGVPDAGMKPS
notes: also called TNF-R2 WT
  binding result: no binding
